From PMC5433095 (mBio, 2017)

Tests used:
[1] = molecular target: genotype 2a JFH1 E1E2 displayed on retrovirus-based HCV pseudoparticles (HCVpp) (Hepatitis C virus genotype 2a, isolate …, UniProt Q99IB8); experiment: immunocapture of virus particles; settings: one partner purified
[2] = molecular target: T1, E1E2 glycoprotein complex on infectious cell culture-derived HCV particles (HCVcc) of strain JFH-1 (Hepatitis C virus genotype 2a, isolate …, UniProt Q99IB8); experiment: immunocapture of virus particles; settings: one partner purified
T1 construct: source: concentrated HCVcc of infectious HCV strain JFH-1

B1: MAb DAO5 IgG (antibody, V domains shown)
VH: EVQLQQSGPELVKPGASLKISCKTSGYTFTDFTFHWVKLSHGPSLEWIGTIKPSNGDTAYNQKFKGKATLSVDKSASTAHIEFRSLTSEDSAVYFCARFGGSYPYAMDYWGQGTSVIVSS
VL: DIVLTQSPATLSVTPGDRVSLSCRASQGIYNYVHWFQQKSHESPRLLIKYASQSISGIPSRFSGSGSGTDFTLSINSVESEDFGMYFCQQTNKWPLTFGAGTKLELK
Question: Does B1 bind [1]?
Answer: binds

Question: Does B1 bind [2]?
Answer: binds
